Data from article PMC10906223 (JCI Insight, 2024).
Several values for one entry are separate records, joined by “and”; a condition that tells them apart may be missing. Equal entries are not always repeated.

Assays:
[1] = test system: mouse dispersed islet cells; experiment: Immunofluorescence: F-actin intensity in glucagon+ mouse dispersed islet cells; type: cell-based; details: mouse cells; individual values; Figure 3F; listed as E;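 further: ImageJ intensity within ROI drawn around each glucagon+ cell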
Description: (§1) Coverslips were treated with WCDD301, preclustered Ephrin-A5 Fc, or preclustered Fc in the following sequential order: KRBH (11 mM glucose, 30 minutes), KRBH (1 mM glucose, 60 minutes), KRBH (1 mM glucose, 30 minutes), and KRBH (11 mM glucose, 60 minutes). After treatment, coverslips were washed once in PBS, fixed in 2% paraformaldehyde in PBS (30 minutes), and again washed in PBS. […] Following wash in PBS, coverslips were incubated in a mixture of Alexa Fluor 555 Phalloidin (Cell Signaling Technology, catalog 8953) and secondary antibodies (goat anti-rabbit Alexa Fluor 488, catalog A-21094, 1:1,000, Molecular Probes; and goat anti-mouse Alexa Fluor 633, catalog A21052, 1:1,000, Life Technologies) for 1 hour at RT. Both primary and secondary antibodies were diluted in blocking buffer containing 0.05% Tween 20. Coverslips were washed using PBS and counterstained by using DAPI (1:1,000) for 10 minutes. Following 2 washes in PBS, coverslips were mounted on glass slides using ProLong Glass Antifade Mountant (Invitrogen, catalog P36980). Images were captured using the Zeiss LSM880 microscope with a Plan-Apochromat 63× 1.4 NA objective lens by setting dual-band dichroic/filter for 405, 488, 561, and 633 nm laser excitation. For each slide, 25–30 fields of view were scanned, and in each field of view, 3–5 cells were imaged. […] Values of intensity were compared among groups using 1-way ANOVA, α = 0.05.

[2] = test system: human donor dispersed islet cells; experiment: Somatostatin secretion from non-diabetic human donor dispersed islet cells; type: cell-based; details: Ephrin-A5
Description: (§2) Pancreata of nondiabetic C57BL/6J mice were digested using collagenase P (Roche Diagnostics, catalog 11213873001), and islets were manually picked up using a stereomicroscope (ZEISS Stemi 305). […] Isolated mouse islets or provided human islets were dispersed as described ([28]). Briefly, 100–120 islets were washed 2 times using modified HBSS, then dispersed in 600 μL Accutase (Innovative Cell Technologies, catalog AT-104) by gently pipetting up and down for 7 minutes at 37°C. […] Following refreshing of KRBH, cells were dispensed in 8 microfuge tubes (2,000 cells/tube) and treated with WCDD301, preclustered Ephrin-A5 Fc, or preclustered Fc in the presence or absence of the competitive inhibitor of EphA4 receptor, rhyncophylline ([60]) (MilliporeSigma, catalog SML2345). In the presence or absence of these effectors, secretion assay was performed sequentially as shown in Supplemental Table 5. […] Preclustering of Ephrin-A5 Fc was done by mixing Ephrin-A5 Fc or Fc alone (BioLegend, catalog 790102) with anti-Fc antibody (Invitrogen, catalog A16086) (1:10 molar ratio) 20 minutes before treatment ([62]). […] Shedding of cleaved EphA4 was measured from the cell culture medium. Experiments were performed by dispersion of 200 islets, and EphA4 levels in media were measured by EphA4 ELISA (ABclonal, catalog RK06572).
(§3) The Integrated Islet Distribution Program provided us human donor islets with their characteristics (Supplemental Table 6). Islets were centrifuged at 500g for 3 minutes, resuspended in CMRL 1066 medium (Gibco, catalog 1150-037) containing 11 mM glucose, and rested in an incubator overnight.
(§4) For the hormone secretion assay, islets or dispersed islet cells were adapted in KRBH buffer containing 11 mM glucose for 1 hour. Then, after 2 washes in HBSS containing 11 mM glucose, islets or cells were treated in the following sequential order in the presence or absence of WCDD301: incubation in KRBH (1 mM glucose, 30 minutes) followed by medium collection, incubation in KRBH (11 mM glucose, 30 minutes) followed by medium collection.

[3] = test system: murine dispersed islet cells; experiment: Glucagon secretion from murine dispersed islet cells; type: cell-based, mouse; details: for Secretion of glucagon: E + Rhy (2.5 µM), Figure 1H; for Secretion of glucagon / Relative secretion of glucagon: listed as E; for Relative secretion of glucagon: Ephrin-A5 Fc (E), one value per mouse, Figure 1F
Description: as §2

[4] = test system: isolated islets of donors with T1D; experiment: Glucagon secretion from isolated islets of donors with T1D; type: cell-based, human; details: isolated islets, T1D donors, one value per donor, Figure 2G, listed as E
Description: as §3, §4

[5] = test system: mouse dispersed islet cells; experiment: Immunofluorescence: EphA4 intensity in glucagon+ mouse dispersed islet cells; type: cell-based; details: mouse cells; individual values; Figure 3H; listed as E;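 further: ImageJ intensity within ROI drawn around each glucagon+ cell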
Description: as §1

[6] = test system: human dispersed islet cells; experiment: Immunofluorescence: F-actin intensity in glucagon+ human dispersed islet cells; type: cell-based; details: human cells; individual values; Figure 3E; listed as E;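 further: ImageJ intensity within ROI drawn around each glucagon+ cell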
Description: as §1

[7] = test system: human dispersed islet cells; experiment: Immunofluorescence: EphA4 intensity in glucagon+ human dispersed islet cells; type: cell-based; details: human cells; individual values; Figure 3G; listed as E;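 further: ImageJ intensity within ROI drawn around each glucagon+ cell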
Description: as §1

[8] = test system: dispersed islet cells of donors with T1D; experiment: Glucagon secretion from dispersed islet cells of donors with T1D; type: cell-based, human; details: dispersed islet cells, T1D donors, one value per donor, Figure 2H, listed as E
Description: as §2, §3, §4

[9] = test system: murine dispersed islet cells; experiment: Insulin secretion from murine dispersed islet cells; type: cell-based, mouse; details: Ephrin-A5 Fc (E), one value per mouse, Figure 1G, listed as E
Description: as §2

[10] = test system: isolated islets of donors with T1D; experiment: Insulin secretion from isolated islets of donors with T1D; type: cell-based, human; details: isolated islets, T1D donors, one value per donor, Figure 2I, listed as E;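 further: insulin concentration in collected medium by Lumit immunoassay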
Description: as §3, §4

[11] = test system: dispersed islet cells of donors with T1D; experiment: Insulin secretion from dispersed islet cells of donors with T1D; type: cell-based, human; details: dispersed islet cells, T1D donors, one value per donor, Figure 2J;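 further: insulin concentration in collected medium by Lumit immunoassay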
Description: as §2, §3, §4

B1: Ephrin-A5 Fc: recombinant mouse Ephrin-A5 Fc; natural ligand of EphA4 receptors (protein)
chain: QDPGSKVVADRYAVYWNSSNPRFQRGDYHIDVCINDYLDVFCPHYEDSVPEDKTERYVLYMVNFDGYSACDHTSKGFKRWECNRPHSPNGPLKFSEKFQLFTPFSLGFEFRPGREYFYISSAIPDNGRRSCLKLKVFVRPTNSCMKTIGVHDRVFDVNDKVENSLEPADDTVHESAEPSRGEN
modifications: left off: Fc, end not stated, kept
notes: recombinant mouse Ephrin-A5 Fc; natural ligand of EphA4 receptors
F-actin intensity [1]: 8.2 and 11.3 and 9.4 and 8.4 and 9.8 and 8.6 and 5.2 and 8.9 and 7.7
Somatostatin secretion (Supplemental Figure 4D; quantity not given) [2]: 1908.4 and 2981.9 and 2200.0
Effect on arginine-stimulated glucagon secretion ([3]; 1 mM and 11 mM glucose, Arg 25 mM, 301 3 µM, E 4 µg/mL, Supplemental Figure 2): its effect was suppressed
Secretion of glucagon ([3]; Glucose (1 mM)): 0.8 and 0.85 and 0.95 and 1.05 and 1
Secretion of glucagon ([3]; Glucose (11 mM)): 1.1 and 1.07 and 1.2 and 1.05 and 1.15
Relative secretion of glucagon ([3]; Glucose (1 mM)): 0.85 and 0.95 and 1.05 and 0.7 and 0.8
Relative secretion of glucagon ([3]; Glucose (11 mM)): 1.01 and 0.8 and 0.9 and 0.85 and 0.94
Secretion of glucagon ([4]; 1 mM glucose): 40.65 and 55.72
Secretion of glucagon ([4]; 11 mM glucose): 37.25 and 40.79
EphA4 intensity [5]: 18.2 and 16.2 and 19.0 and 16.0 and 17.1 and 20.0 and 17.0 and 15.6 and 21.0 and 18.0 and 33.1 and 50.6 and 24.4 and 25.7
F-actin intensity [6]: 9.8 and 7.6 and 4.7 and 8.3 and 7.5 and 5.1 and 5.9 and 5.2
EphA4 intensity [7]: 45.7 and 17.5 and 5.4 and 39.9 and 12.3 and 5.9 and 20.4 and 7.4 and 4.4
Secretion of glucagon ([8]; 1 mM glucose): 14.105 and 25.56
Secretion of glucagon ([8]; 11 mM glucose): 38.15 and 32.58
Relative secretion of insulin ([9]; Glucose (1 mM)): 0.75 and 0.2 and 0.32 and 0.45 and 0.69
Relative secretion of insulin ([9]; Glucose (11 mM)): 1.02 and 1 and 0.85 and 0.8 and 0.96
Secretion of insulin ([10]; 1 mM glucose): 0.075 and 0.07
Secretion of insulin ([10]; 11 mM glucose): 0.11 and 0.05
Secretion of insulin ([11]; 1 mM glucose): 0.06
Secretion of insulin ([11]; 11 mM glucose, listed as E): 0.10 and 0.05
